Patent US20060286117A1, “Neuronally expressed stem cell factor modulates angiogenesis and neural stem cell migration to areas of brain injury” (priority 2003, published 2006)
Entries after “also recorded” stand apart in the source; their conditions may differ.

How the values were obtained:
[1] = test system: HUVEC; test: Thymidine incorporation in HUVEC exposed to SCF; type: cell-based, human; details: basal medium, 48 hr
Procedure: (§1) After ECs (3×10^3/well) were adhered to 96-well gelatin-coated plates (BD Discovery Labware, Bedford, Mass.), the EC growth medium was replaced by SCF ([…]) (R&D Systems, Minneapolis, Minn.) suspended in treatment medium (basal medium with 0.1% BSA) for an additional 48 hr (HUVEC and HMVEC-d) or 72 hr (BMVEC-b) with renewal of medium at 24 hr intervals. ECs were cultured for 4 hr in 0.25 μCi of [^3H]thymidine (Amersham Pharmacia Biotech, Piscataway, N.J.) at the end. High molecular mass [^3H]-radioactivity was precipitated and counted.

[2] = test system: HMVEC-d; test: Thymidine incorporation in HMVEC-d exposed to SCF; type: cell-based, human; details: basal medium, 48 hr
Procedure: as §1

[3] = test system: HBMEC; test: EC proliferation, HBMEC exposed to SCF; type: cell-based, human
[4] = test system: glioma cells; test: Glioma cell proliferation in vitro with SCF; type: cell-based, human; details: even high concentrations of SCF
[5] = test system: BMVEC-b; test: Matrigel tube formation (EC differentiation) assay, BMVEC-b; type: cell-based, bovine; details: SCF 20 ng/ml
Procedure: After the Matrigel (BD Biosciences) formed a solid gel in 24-well plates, serum-starved BMVEC-b cells were seeded on the gel surface at 10^5 cells per well and cultured in treatment medium in the presence or absence of SCF (20 ng/ml). Primary HBMEC were placed on the gel directly at 24×10^3 per well. Tubular formation was observed using an inverted phase contrast microscope, and images were captured at 4 and 18 hr after cell seeding. Each experiment was repeated two or three times.

[6] = test system: c-Kit, MAPK and PI3K/Akt pathways in HUVEC; test: Immunoblot of SCF/c-Kit signal transduction, HUVEC; type: cell-based, human
Procedure: Confluent-grown ECs were treated with 50 ng/ml of SCF for 5, 10, 15, and 30 min after 24 hr of serum starvation. The ECs were collected with RIPA lysis buffer (Upstate, Charlottesville, Va.) containing 50 mM NaF, 1 mM Na3VO4, […], and Protease Inhibitor Cocktail (Roche). The antibodies were purchased from Cell Signaling Technology, Inc. (Beverly, Mass.) or as mentioned otherwise. All the primary antibodies were used in a 1:1000 dilution except for the anti-SCF antibody, which was used in a 1:2000 dilution. The primary antibodies were anti-phospho-c-Kit, anti-phospho-MEK1/2 and anti-MEK1/2, anti-phospho-p44/42 MAPK and anti-p44/42 MAPK, anti-phospho-SAPK/JNK and anti-SAPK/JNK, anti-phospho-p38 MAPK and anti-p38 MAPK, anti-phospho-Akt and anti-Akt, anti-phospho-mTOR and anti-mTOR, anti-phospho-4E-BP1 and anti-4E-BP1, anti-SCF and anti-VEGF (Chemicon, Temecula, Calif.), and anti-β-tubulin (Sigma). Re-blotting was done after membranes were stripped by re-blot kit (Chemicon). Tie2 detection in Matrigel plugs from the in vivo Matrigel assay was carried out by immunoprecipitation and immunoblotting. The gel plugs were carefully separated from muscle and skin and homogenized with RIPA lysis buffer. The resulting total tissue lysates ([…]) were immunoprecipitated with Tie2 antibody (Santa Cruz Biotechnology, Inc., Santa Cruz, Calif.) and then analyzed by immunoblot with Tie2 antibody (Zadeh et al. 2004 Am J Pathol 162:467-476).

[7] = test system: SVZ stem cells; test: In vivo SVZ cell tracking by ventricular DiI or GFP adenovirus before SCF injection; set-up: species or system mouse; details: seven days after SCF injection
Procedure: For labeling of neural progenitors in vivo, BrdU (Roche) was administrated intraperitoneally twice a day, at 8-hour intervals, for 14 days (50 mg/kg body weight). Twenty hour from the last BrdU injection, several animals were killed and their brains were sectioned for BrdU immunostaining. Intracerebral injections were administered to the remaining animals. Stereotaxic surgery was performed as described in the “freeze” injury, and the injections were given at the position of 1 mm anterior to the bregma, 1.5 mm lateral to the midline, and 2.5 mm ventral to the dura. Mice received a suspension of rmSCF (3 μg in 3 μl of PBS; R&D systems) or PBS through a Hamilton syringe. Each injection took 15 min. Seven days from the intracranial injection, the animals were killed and the brains were processed for BrdU immunohistochemical analysis. For ventricular injection of DiI (1,1′-dioctadecyl-6,6′-di(4-sulfophenyl)-3,3,3′,3′-tetrametylindocarbocyanine; Molecular Probes) or adenovirus expressing GFP, 2 μl of 0.2% DiI in DMSO or 2 μl of replication incompetent adenovirus (10^8 plaque-forming units per μl) (He, T. C. et al. 1998 PNAS USA 95:2509-2514) was injected 0.5 mm posterior and 0.7 mm lateral to bregma, and 2 mm below the dura matter into the lateral ventricle. […] Seven days after SCF injection, the brains were sectioned and analyzed for DiI or GFP distributions.

[8] = test system: bMVEC-B cells; test: bMVEC-B DNA synthesis by thymidine incorporation (Example 3); type: cell-based; details: rmSCF 1 ng/ml to 250 ng/ml, 72 hours
Procedure: To specifically confirm the pro-angiogenic effects of SCF in the brain, bMVEC-B cells were used. The cells were cultured in the presence of different concentrations of rmSCF (1 ng/ml to 250 ng/ml) or 0.1% BSA only medium for 72 hours. The rate of DNA synthesis was measured by thymidine incorporation.

[9] = test system: bMVEC-B cells; test: bMVEC-B tube formation on matrigel (Example 3); type: cell-based; details: vs SCF-absent control
Text: Endothelial cell tube formation on extracellular matrix (ECM) is a commonly used in vitro model of EC differentiation and angiogenesis. We examined the SCF effects on the bMVEC-B cell tube formation.

[10] = SCF 50 ng/ml after serum starvation

B1: SCF: Stem cell factor protein (R&D Systems), ligand of the c-Kit receptor (protein)
chain: KEICGNPVTDNVKDITKLVANLPNDYMITLNYVAGMDVLPSHCWLRDMVIQLSLSLTTLLDKFSNISEGLSNYSIIDKLGKIVDDLVLCMEENAPKNIKESPKRPETRSFTPEEFFSIFNRSIDAFKDFMVASDTSDCVLSSTLGPEKDSRVSVTKPFMLPPVA
proliferation (thymidine incorporation) [1]: stimulated proliferation in all three primary ECs in a dose-dependent manner
proliferation (thymidine incorporation) [2]: stimulated proliferation in all three primary ECs in a dose-dependent manner
HBMEC proliferative response ([3]; SCF from 0.1 to 10 ng per ml): dose-dependent growth
EC growth and survival with SCF alone ([3]; without the addition of other cytokines such as VEGF): sufficient to sustain human brain microvascular EC and other EC cell growth and survival
glioma cell proliferation [4]: failed to induce proliferation
time to mature appearing capillary-like structures [5]: ≤ 18 h
time to migration in Matrigel [5]: ≤ 4 h
duration of p38 MAPK activation ([6]; SCF 50 ng/ml): over 30 min
phosphorylation of 4E-BP1 ([6]; SCF 50 ng/ml): increased phosphorylation of 4E-BP1
phosphorylation of Akt ([6]; SCF 50 ng/ml): significantly enhanced
phosphorylation of MEK1/2 ([6]; SCF 50 ng/ml): dramatically increased
phosphorylation of p44/42 MAPK ([6]; SCF 50 ng/ml): dramatically increased
time of SAPK/JNK activation following SCF exposure ([6]; SCF 50 ng/ml): 10 to 15 min
duration of c-Kit auto-tyrosine-phosphorylation [6, 10]: 30 min
time of peak c-Kit auto-tyrosine-phosphorylation [6, 10]: 10 to 15 min
DiI-labelled cells near the SCF injection site ([7]; ventricular DiI): greater number of DiI positive cells; also recorded: significant numbers of DiI labelled cells
GFP-positive cells in the SCF-injected cortex ([7]; ventricular GFP adenovirus): a large number of GFP-positive cells had migrated
bMVEC-B DNA synthesis (thymidine incorporation) [8]: stimulated DNA synthesis
bMVEC-B tube formation on matrigel [9]: enhanced bMVEC-B cell tube formation; also recorded: at much earlier time point and more completely
